This is an account of results in patent US20140294863A1, “SERUM ALBUMIN BINDING PEPTIDES FOR TUMOR TARGETING” (GENENTECH, INC., priority 2002, published 2014).

Like-named read-outs stand apart in the source and are kept apart here. Bridges are numbered along the chain shown (N, C = ends). Where no end group is shown, it is not given here.

For one series, the system named is TF and albumin. As to the kind of experiment: biotin-TF binding assay (fusion on immobilized albumin detected with biotinylated TF). As to conditions: FIG. 8. The text has this:
Purified D3H44 fusions retained their ability to bind TF as measured using a FX activation assay (FIG. 5), and a prothrombin time assay that measures prolongation of tissue factor dependent clotting (FIG. 6). The assay methods are described, for example, in Dennis et al., 2000, Nature 404: 465. […] Further, each of the albumin-binding fusions bound TF and albumin simultaneously. […] In this assay, binding of the D3H44 fusions to immobilized albumin was detected with biotinylated TF.

A short description of series [1]: Pharmacokinetics of D3H44 variants in rabbits (TF binding ELISA). Set-up: V1 Avg (Historical): unit not given here. The format is in vivo, rabbit. The protocol:
D3H44 variants were administered to rabbits as a 0.5 mg/kg bolus injection into the marginal ear vein. Each test group consisted of 3 rabbits (5 rabbits were used in the F(ab′)2 group). Serum samples were taken at the indicated time points, serially diluted, and the concentration of D3H44 was determined using a TF binding ELISA.
Pharmacokinetic analysis was performed using the test article plasma concentrations. Group mean plasma data for each test article conforms to a multi-exponential profile when plotted against the time post-dosing. The data were fit by a standard two-compartment model with bolus input and first-order rate constants for distribution and elimination phases. The general equation for the best fit of the data for i.v. administration was: c(t)=Ae^−αt+[…], where c(t) is the plasma concentration at time t, A and B are intercepts on the Y-axis, and α and β are the apparent first-order rate constants for the distribution and elimination phases, respectively. The α-phase is the initial phase of the clearance and reflects distribution of the protein into all extracellular fluid of the animal, whereas the second or β-phase portion of the decay curve represents true plasma clearance. Methods for fitting such equations are well known in the art. For example, A=D/V(α−k21)/(α−β), B=D/V (β−k21)/(α−β), and α and β (for α>β) are roots of the quadratic equation: r^2+(k12+k21+k10)r+k21k10=0 using estimated parameters of V=volume of distribution, k10=elimination rate, k12=transfer rate from compartment 1 to compartment 2 and k21=transfer rate from compartment 2 to compartment 1, and D=the administered dose.
Data analysis: Graphs of concentration versus time profiles were made using KaleidaGraph (KaleidaGraph™ V. 3.09 Copyright 1986-1997. Synergy Software. Reading, Pa.). Values reported as less than reportable (LTR) were not included in the PK analysis and are not represented graphically. Pharmacokinetic parameters were determined by compartmental analysis using WinNonlin software (WinNonlin® Professional V. 3.1 WinNonlin™ Copyright 1998-1999. Pharsight Corporation. Mountain View, Calif.). Pharmacokinetic parameters were computed as described in Ritschel W A and Kearns G L, 1999, IN: Handbook Of Basic Pharmacokinetics Including Clinical Applications, 5th edition, American Pharmaceutical Assoc., Washington, D.C.

For series [2], the target named is T1, rat albumin (Rattus norvegicus, UniProt P02770). Particulars: FIG. 3.
T1 sequence (P02770 25-608): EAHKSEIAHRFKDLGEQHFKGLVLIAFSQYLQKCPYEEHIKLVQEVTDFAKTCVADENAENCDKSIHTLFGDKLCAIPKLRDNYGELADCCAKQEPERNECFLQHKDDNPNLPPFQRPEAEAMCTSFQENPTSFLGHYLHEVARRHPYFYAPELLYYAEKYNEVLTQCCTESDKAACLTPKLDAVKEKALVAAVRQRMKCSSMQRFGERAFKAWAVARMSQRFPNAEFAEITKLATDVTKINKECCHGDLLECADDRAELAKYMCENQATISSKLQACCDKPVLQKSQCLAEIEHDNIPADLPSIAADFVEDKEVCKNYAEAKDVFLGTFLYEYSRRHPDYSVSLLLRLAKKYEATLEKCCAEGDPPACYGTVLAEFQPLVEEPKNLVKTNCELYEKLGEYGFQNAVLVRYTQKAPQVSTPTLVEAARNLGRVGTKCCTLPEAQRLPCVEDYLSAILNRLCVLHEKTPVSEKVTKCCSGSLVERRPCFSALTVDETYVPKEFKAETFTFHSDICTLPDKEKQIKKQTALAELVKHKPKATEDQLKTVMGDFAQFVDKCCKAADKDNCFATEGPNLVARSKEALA
Series [3] has as its target T2, rabbit albumin (Oryctolagus cuniculus, UniProt P49065). Particulars: FIG. 3.
The next series has as its target T3, human albumin (Homo sapiens, UniProt P02768).
T3 construct: purchased Sigma
As to the kind of experiment: Phage ELISA, phage clones on immobilized human albumin. The format is binding. The procedure:
(§1) Phage clones (approximately 10^11 phage) were added to Maxisorp plates coated with rat, rabbit, or human albumin or with mouse, bovine, or rhesus albumin (Sigma), as described above. The microtiter plate was washed with wash buffer and bound phage were detected following incubation with HRP/Anti-M13 Conjugate (Amerisham Pharmacia Biotech, Piscataway, N.J.).

The target of series [4] is T2, rabbit albumin. The series is described as follows: Phage ELISA, phage clones on immobilized rabbit albumin. As to conditions: phage ELISA. The format is binding. Details: purchased Sigma. The procedure: as §1
For orientation: ELISA stands for enzyme-linked immunosorbent assay.

The conditions of series [5]: in vivo; cited from earlier work.
For series [6] the following is noted: in vivo; cited from earlier work. This is another data set of the same source.
The conditions of series [7]: in vivo; cited from earlier work. The source holds these as a separate data set.
The conditions of series [8]: in vivo; cited from earlier work. The source holds these as a separate data set.
In the next series the target is T4, mouse albumin (Mus musculus, UniProt P07724).
T4 construct: purchased Sigma
T4 sequence (P07724 25-608): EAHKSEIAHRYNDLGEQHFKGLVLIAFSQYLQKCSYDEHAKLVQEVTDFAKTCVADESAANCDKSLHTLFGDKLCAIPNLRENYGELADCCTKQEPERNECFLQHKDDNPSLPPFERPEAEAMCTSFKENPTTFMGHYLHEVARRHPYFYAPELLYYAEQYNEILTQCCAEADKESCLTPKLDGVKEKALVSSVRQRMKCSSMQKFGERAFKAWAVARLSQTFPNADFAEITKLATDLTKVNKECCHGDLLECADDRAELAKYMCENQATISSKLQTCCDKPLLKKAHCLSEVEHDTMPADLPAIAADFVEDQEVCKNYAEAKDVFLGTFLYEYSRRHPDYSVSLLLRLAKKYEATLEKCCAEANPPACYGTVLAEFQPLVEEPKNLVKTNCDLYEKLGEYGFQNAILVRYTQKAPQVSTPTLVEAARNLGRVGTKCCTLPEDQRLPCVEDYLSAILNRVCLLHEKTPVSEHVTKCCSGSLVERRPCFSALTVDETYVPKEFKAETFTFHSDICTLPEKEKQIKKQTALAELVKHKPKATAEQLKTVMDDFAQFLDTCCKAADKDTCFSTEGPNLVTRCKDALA
As to the kind of experiment: Direct Binding ELISA, AB.Fab variants on immobilized mouse albumin. As to conditions: average and SD of at least 3 determinations. The protocol:
(§2) Mouse, rat, or rabbit albumin (Sigma, St. Louis, Mo.) were immobilized onto NUNC Maxisorp™ 96-well plates at 2 ug/ml overnight at 4° C. […] AB.Fab variants were serially diluted in binding buffer and added at 100 μl per well to the immobilized albumin for 30 minutes at 25° C. Unbound AB.Fab variant was removed by washing wells with 0.05% PBS/Tween® 20 and bound AB.Fab variant was detected with goat anti-human Fab′2-HRP for 1 hour at 25° C. Bound HRP was measured with a solution of tetramethylbenzidine (TMB)/H202. After 15 minutes, the reaction was quenched by the addition of 1M phosphoric acid.
(§3) Initially we explored binding of the AB.Fab variants to immobilized albumin using a Direct Binding ELISA.

The target in series [9] is T1, rat albumin. The series is described as follows: Direct Binding ELISA, AB.Fab variants on immobilized rat albumin. Details: purchased Sigma. Particulars: average and SD of at least 3 determinations. The protocol:
as §2, §3

Series [10] has as its target T2, rabbit albumin. As to the kind of experiment: Direct Binding ELISA, AB.Fab variants on immobilized rabbit albumin. Set-up: purchased Sigma. As to conditions: average and SD of at least 3 determinations. The protocol: as §2, §3
For series [11], the target named is T1, rat albumin. The series is described as follows: Solution Binding ELISA, AB.Fab variants with soluble rat albumin. Details: purchased Sigma.
Series [12] is described as follows: Pharmacokinetics of AB.Fab variants in rats (HER2 Binding ELISA). The format is in vivo. Particulars: Rat; group mean. The procedure: (§4) All pharmacokinetic (PK) studies were conducted according to protocols approved by the Institutional Animal Care and Use Committee at Genentech, Inc. Sprague Dawley rats were supplied by Charles River Laboratories (Hollister, Calif. USA). New Zealand White (NWZ) rabbits were supplied by Myrtle's Rabbitry (Thompson Station, Tenn. USA). BALB-c mice were supplied by Charles River (Hollister, Calif. USA).
At pre-dose, and over the course of 7 days post-dose, plasma was collected via a cannula inserted in the jugular vein.
(§5) Briefly, samples were added to microtiter wells coated with HER2ecd and incubated for 2 hours at room temperature. The wells were washed, and goat anti-huFab-HRP was added and incubated for 1 hour at room temperature. Unbound HRP was removed by washing and enzyme substrate was added to detect bound HRP. […] Concentrations of AB.Fab were extrapolated by comparison to a standard curve of the dosed molecule.
(§6) For rats and rabbits, concentration versus time profiles for each animal were fit to a two compartment model using, iterative re-weighting to estimate the pharmacokinetic parameters of Area Under the Concentration-Time Curve (AUC), Clearance (CL), Beta Half-Life (t1/2β), Volume of Distribution of the Central Compartment (V1), and Steady State Volume of Distribution (Vss) using WinNonlin® software (Version 3.2, Pharsight, Inc.; Mountain View, Calif.) and group means were calculated.

The nature of series [13]: Pharmacokinetics of AB.Fab variants in rabbits (HER2 Binding ELISA). The format is in vivo. Particulars: Rabbit; group mean. The procedure: as §4, §5, §6
Another series addresses albumin. As to the kind of experiment: SA08b binding assay / competition ELISA, albumin species not stated. As to conditions: albumin species not given.
Where [14] appears, read: Summarized Pk Data (Historical).

T2 sequence (P49065 25-608): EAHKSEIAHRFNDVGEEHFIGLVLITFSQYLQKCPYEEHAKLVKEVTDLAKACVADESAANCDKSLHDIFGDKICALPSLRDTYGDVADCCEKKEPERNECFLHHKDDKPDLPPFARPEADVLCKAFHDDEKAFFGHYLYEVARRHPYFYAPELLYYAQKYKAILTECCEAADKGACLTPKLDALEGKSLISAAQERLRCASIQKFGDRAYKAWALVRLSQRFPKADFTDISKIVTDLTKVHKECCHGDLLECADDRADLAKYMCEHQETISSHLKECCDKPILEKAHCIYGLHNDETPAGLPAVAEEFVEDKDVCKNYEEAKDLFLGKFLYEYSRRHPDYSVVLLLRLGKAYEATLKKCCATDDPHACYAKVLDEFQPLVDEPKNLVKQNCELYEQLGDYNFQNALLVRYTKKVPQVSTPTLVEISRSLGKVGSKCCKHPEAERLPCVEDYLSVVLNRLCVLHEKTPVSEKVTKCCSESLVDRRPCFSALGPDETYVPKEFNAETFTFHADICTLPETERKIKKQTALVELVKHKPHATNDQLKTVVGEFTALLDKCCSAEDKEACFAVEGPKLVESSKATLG

Take “D3H44-Fab: Fab fragment of D3H44, a humanized antibody that binds human tissue factor (TF)”: in the series on TF and albumin, the “simultaneous binding of TF and albumin” value is “did not bind albumin”. Besides, in [1] (setting [14]), the “AUC Avg (Historical)” value is 9.8 µg·h/mL, the “AUC/Dose Avg (Historical)” value is recorded as 19.7 (hr * ug/mL)(/(mg/kg), the “CL Avg (Historical)” value was 51.8 mL/h/kg and the “K10-HL Avg (Historical)” value worked out at 0.760 hr. In addition, in [1] (setting [14]), the “V1 Avg (Historical)” value is 55.9 and the “Vss Avg (Historical)” value is reported as 127 mL/kg. In [1] (rabbit, 0.5 mg/kg bolus i.v.), the “AUC Avg” value was 5.86 µg·h/mL, the “AUC/Dose Avg” value is 14.8 (hr * ug/mL)/(mg/kg), the “Cmax Avg” value is 5.00 µg/mL and the “MRT Avg” value is 3.07 h. Also, in [1] (rabbit, 0.5 mg/kg bolus i.v.), the “V1* Avg (initial distribution volume)” value is reported as 90.6 mL/kg.
Take `CC[C@H](C)[C@H](NC(=O)[C@H](CC(C)C)NC(=O)CNC(=O)[C@H](CCC(N)=O)NC(C)=O)C(=O)NCC(=O)N[C@@H](CC(=O)O)C(=O)N[C@H](C(=O)N[C@H]1CSSC[C@@H](C(=O)N[C@@H](CC(C)C)C(=O)N[C@@H](Cc2c[nH]c3ccccc23)C(=O)NCC(=O)N[C@@H](CC(=O)O)C(=O)N[C@@H](CO)C(=O)N[C@H](C(=O)N[C@@H](CCCCN)C(N)=O)C(C)C)NC(=O)CNC(=O)[C@H](Cc2c[nH]c3ccccc23)NC(=O)[C@H](CCCNC(=N)N)NC(=O)[C@@H]2CCCN2C(=O)[C@H](CC(C)C)NC1=O)[C@@H](C)CC` [SA08]: at rat albumin [2], the “inhibition of RD phage binding to rat albumin” value was “clearly blocked”. For the same molecule, at rabbit albumin [3], the “inhibition of BA phage binding to rabbit albumin” value is reported as “clearly blocked”.
Turning to “QRQMVDFCLPQWGCLWGDGF [RB, phage clone selected on rat SA, ID 35]”, in the series with human albumin, the “binding to human albumin” value was “capable of binding”. Also, the “binding to rabbit albumin” value with rabbit albumin [4] is “capable of binding”.
Turning to albumin, the half-life in mouse in [5] is 1 days. The half-life in rat in series [6] is 1.9 days. Moreover, the half-life in rabbit in series [7] was 5.55 days. Further, the half-life in man in [8] is 19 days.
In the case of “4D5-H11: AB.Fab variant made by deletion in 4D5-H4 (Table 12) (DICLPRWGCL; disulfide 3-9 (inferred); also: part of Fab heavy chain)”, the EC50 with mouse albumin was more than 2000 nM; with rat albumin [9], more than 1000 nM; in the series with rabbit albumin [10] it was more than 2000 nM. Moreover, the Kd in the series with rat albumin [11] (Rat Albumin, soluble, Scatchard, average and SD of at least 3 determinations, read-out: Solution Binding ELISA (Kd)) turned out to be 2430 ± 320 nM.
Turning to “AB.Fab 4D5-H11 (DICLPRWGCL; disulfide 3-9 (inferred); also: part of Fab heavy chain)”, in series [12], the exposure (AUC) was determined as 57.0 ± 7.39 µg·h/mL, the CL was 80.2 ± 11.8 mL/h/kg, the V1 worked out at 48.7 ± 2.25 mL/kg and the distribution volume (Vss) is given as 81.6 ± 5.76 mL/kg. The molecule further gave a t1/2β in series [12] of 4.21 ± 0.151 h. For the same molecule, in series [13], the AUC amounted to 24.6 ± 2.74 µg·h/mL, the CL amounted to 20.6 ± 2.24 mL/h/kg, the V1 worked out at 40.4 ± 4.38 mL/kg and the Vss was found to be 101 ± 31.7 mL/kg. The molecule also registered a t1/2β in series [13] of 11.9 ± 2.61 h. Also, in the series with rat albumin [11] (Rat albumin, as listed in Table 15, read-out: Kd for Albumin), the Kd amounted to 2500 nM.
Molecule “linear peptide, identical to SA06, but having both Cys residues altered to Ala: linear peptide, identical to SA06, but having both Cys residues altered to Ala (LEYEDIALPKWGALWGGE)” returned an IC50 at albumin of more than 50 µM.

Broadly, the EC50 is the concentration at which the effect is half-maximal. Usually Kd stands for a measure of binding affinity in units of concentration. In general, AUC refers to the area under the concentration-time curve, a measure of exposure. What is called Vss is a proportionality between amount in the body and measured concentration, not a real space. The IC50 is the concentration that gives 50% inhibition.
